Values quoted from earlier work as cited in paper PMC4856733.

Molecular target: vinculin tail tail (Homo sapiens) (UniProt P18206)

Kd: < 1 nM
Substance: vinculin head head (from UniProt P18206)
